These results are taken from article PMC10786891, “Massively parallel profiling of RNA-targeting CRISPR-Cas13d”.

B1: target 2 MT 5'PFS GUG 3'PFS CCG (mixed)
RNA 1: CACCCGUGCAAAAUUGCAGGGGUCUAAAACCUUCUCCAAAUUGUUUCAUCCU
RNA 2: GGGAAUGGAUCCACAUCUACGAAUUCGUGAGGAUGAAACAAUUUGGAGAAGCCGAGAUCGGAAGAGCACACGU
B2: target 2 MT 5'PFS AAG 3'PFS CUG (mixed)
RNA 1: B1 RNA 1
RNA 2: B1 RNA 2 with G27A, U28A, C53U
B3: target 2 MT 5'PFS GCC 3'PFS AUG (mixed)
RNA 1: B1 RNA 1
RNA 2: B1 RNA 2 with U28C, G29C, C52A, C53U
B4: target 2 MT 5'PFS GUG 3'PFS AAG (mixed)
RNA 1: B1 RNA 1
RNA 2: B1 RNA 2 with C52A, C53A
B5: target 2 MT 5'PFS CUU 3'PFS CGC (mixed)
RNA 1: B1 RNA 1
RNA 2: B1 RNA 2 with G27C, G29U, C53G, G54C
B6: target 2 MT 5'PFS AGU 3'PFS AAG (mixed)
RNA 1: B1 RNA 1
RNA 2: B1 RNA 2 with G27A, U28G, G29U, C52A, C53A
B7: target 2 MT 5'PFS ACG 3'PFS UAG (mixed)
RNA 1: B1 RNA 1
RNA 2: B1 RNA 2 with G27A, U28C, C52U, C53A
B8: target 2 MT 5'PFS AAG 3'PFS CUC (mixed)
RNA 1: B1 RNA 1
RNA 2: B1 RNA 2 with G27A, U28A, C53U, G54C
B9: target 2 MT 5'PFS CUU 3'PFS CGA (mixed)
RNA 1: B1 RNA 1
RNA 2: B1 RNA 2 with G27C, G29U, C53G, G54A
B10: target 2 MT 5'PFS GAG 3'PFS CCG (mixed)
RNA 1: B1 RNA 1
RNA 2: B1 RNA 2 with U28A
B11: target 2 MT 5'PFS GCC 3'PFS AUC (mixed)
RNA 1: B1 RNA 1
RNA 2: B1 RNA 2 with U28C, G29C, C52A, C53U, G54C
B12: target 2 MT 5'PFS GCC 3'PFS AUA (mixed)
RNA 1: B1 RNA 1
RNA 2: B1 RNA 2 with U28C, G29C, C52A, C53U, G54A
B13: target 2 MT 5'PFS UAU 3'PFS UCG (mixed)
RNA 1: B1 RNA 1
RNA 2: B1 RNA 2 with G27U, U28A, G29U, C52U
B14: target 2 MT 5'PFS CUU 3'PFS CGG (mixed)
RNA 1: B1 RNA 1
RNA 2: B1 RNA 2 with G27C, G29U, C53G
B15: target 2 MT 5'PFS CUU 3'PFS CGU (mixed)
RNA 1: B1 RNA 1
RNA 2: B1 RNA 2 with G27C, G29U, C53G, G54U
B16: target 2 MT 5'PFS UAA 3'PFS UAA (mixed)
RNA 1: B1 RNA 1
RNA 2: B1 RNA 2 with G27U, U28A, G29A, C52U, C53A, G54A
B17: target 2 MT 5'PFS AGG 3'PFS UAA (mixed)
RNA 1: B1 RNA 1
RNA 2: B1 RNA 2 with G27A, U28G, C52U, C53A, G54A
B18: target 2 MT 5'PFS GAG 3'PFS CCU (mixed)
RNA 1: B1 RNA 1
RNA 2: B1 RNA 2 with U28A, G54U
B19: target 2 MT 5'PFS CUU 3'PFS AGC (mixed)
RNA 1: B1 RNA 1
RNA 2: B1 RNA 2 with G27C, G29U, C52A, C53G, G54C
B20: target 2 MT 5'PFS CUU 3'PFS AGG (mixed)
RNA 1: B1 RNA 1
RNA 2: B1 RNA 2 with G27C, G29U, C52A, C53G
B21: target 2 MT 5'PFS CUU 3'PFS AGU (mixed)
RNA 1: B1 RNA 1
RNA 2: B1 RNA 2 with G27C, G29U, C52A, C53G, G54U
B22: target 2 MT 5'PFS GAG 3'PFS CCA (mixed)
RNA 1: B1 RNA 1
RNA 2: B1 RNA 2 with U28A, G54A
B23: target 2 MT 5'PFS UGA 3'PFS AGA (mixed)
RNA 1: B1 RNA 1
RNA 2: B1 RNA 2 with G27U, U28G, G29A, C52A, C53G, G54A
B24: target 2 MT 5'PFS AAG 3'PFS CUA (mixed)
RNA 1: B1 RNA 1
RNA 2: B1 RNA 2 with G27A, U28A, C53U, G54A
B25: target 2 MT 5'PFS UAU 3'PFS UCA (mixed)
RNA 1: B1 RNA 1
RNA 2: B1 RNA 2 with G27U, U28A, G29U, C52U, G54A
B26: target 2 MT 5'PFS CUU 3'PFS AGA (mixed)
RNA 1: B1 RNA 1
RNA 2: B1 RNA 2 with G27C, G29U, C52A, C53G, G54A
B27: target 2 MT 5'PFS GUG 3'PFS AAC (mixed)
RNA 1: B1 RNA 1
RNA 2: B1 RNA 2 with C52A, C53A, G54C
B28: target 2 MT 5'PFS UAA 3'PFS UAC (mixed)
RNA 1: B1 RNA 1
RNA 2: B1 RNA 2 with G27U, U28A, G29A, C52U, C53A, G54C
B29: target 2 MT 5'PFS AGU 3'PFS AAU (mixed)
RNA 1: B1 RNA 1
RNA 2: B1 RNA 2 with G27A, U28G, G29U, C52A, C53A, G54U
B30: target 2 MT 5'PFS GUG 3'PFS AAA (mixed)
RNA 1: B1 RNA 1
RNA 2: B1 RNA 2 with C52A, C53A, G54A
B31: target 2 MT 5'PFS AAA 3'PFS AAA (mixed)
RNA 1: B1 RNA 1
RNA 2: B1 RNA 2 with G27A, U28A, G29A, C52A, C53A, G54A
B32: target 2 MT 5'PFS UCU 3'PFS UCC (mixed)
RNA 1: B1 RNA 1
RNA 2: B1 RNA 2 with G27U, U28C, G29U, C52U, G54C
B33: target 2 MT 5'PFS GUG 3'PFS AAU (mixed)
RNA 1: B1 RNA 1
RNA 2: B1 RNA 2 with C52A, C53A, G54U
B34: target 1 G13U,G15A (mixed)
RNA 1: CACCCGUGCAAAAAUGCAGGGGUCUAAAACUGAGCGGAUAACCUCUCUAUGG
RNA 2: GGGAAUGGAUCCACAUCUACGAAUUCGUACCAUAGAAAUGUUAUCCGCUCACCGAGAUCGGAAGAGCACACGU
B35: target 1 insC 3' of 9,insA 3' of 2 (mixed)
RNA 1: B34 RNA 1
RNA 2: GGGAAUGGAUCCACAUCUACGAAUUCGUACCAUAGAGAGGUUACUCCGCUCAACCGAGAUCGGAAGAGCACACGU
B36: target 1 insG 3' of 19,insA 3' of 11 (mixed)
RNA 1: B34 RNA 1
RNA 2: GGGAAUGGAUCCACAUCUACGAAUUCGUACCAUGAGAGAGGUAUAUCCGCUCACCGAGAUCGGAAGAGCACACGU

Numbering of substitutions follows the chain as printed. Numbers in names are those of the source.

The data set concerns the target T1, EsCas13d, nuclease-dead (Eubacterium siraeum, UniProt B0MS50, R295A;H300A;R849A;H854A).
T1 sequence: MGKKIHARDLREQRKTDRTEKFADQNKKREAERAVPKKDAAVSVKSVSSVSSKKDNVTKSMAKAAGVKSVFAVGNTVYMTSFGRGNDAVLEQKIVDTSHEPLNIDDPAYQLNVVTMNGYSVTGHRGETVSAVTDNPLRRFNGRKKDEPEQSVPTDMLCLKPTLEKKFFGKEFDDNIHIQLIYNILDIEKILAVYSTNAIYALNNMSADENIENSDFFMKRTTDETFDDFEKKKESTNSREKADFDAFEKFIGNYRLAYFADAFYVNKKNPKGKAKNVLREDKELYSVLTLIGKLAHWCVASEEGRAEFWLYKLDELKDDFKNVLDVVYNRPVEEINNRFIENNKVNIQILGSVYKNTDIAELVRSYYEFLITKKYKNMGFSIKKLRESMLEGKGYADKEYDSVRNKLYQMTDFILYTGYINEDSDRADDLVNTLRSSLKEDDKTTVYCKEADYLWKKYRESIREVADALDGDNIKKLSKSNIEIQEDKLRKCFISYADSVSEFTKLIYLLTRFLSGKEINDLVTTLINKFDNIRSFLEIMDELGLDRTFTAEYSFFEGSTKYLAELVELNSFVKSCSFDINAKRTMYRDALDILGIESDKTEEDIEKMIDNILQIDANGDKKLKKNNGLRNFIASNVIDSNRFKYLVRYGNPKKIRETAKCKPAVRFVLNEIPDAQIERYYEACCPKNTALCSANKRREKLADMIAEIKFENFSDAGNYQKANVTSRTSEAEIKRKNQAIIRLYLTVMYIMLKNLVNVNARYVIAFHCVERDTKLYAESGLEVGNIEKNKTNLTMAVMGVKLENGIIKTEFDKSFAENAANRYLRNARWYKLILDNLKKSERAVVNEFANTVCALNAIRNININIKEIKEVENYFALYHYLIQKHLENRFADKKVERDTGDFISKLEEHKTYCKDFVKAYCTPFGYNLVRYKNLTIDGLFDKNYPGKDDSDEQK
Put plainly: crRNA (strand 1, pre-loaded); Mg2+; 40 mM Tris-HCl pH 7.5, 150 mM NaCl, 6 mM MgCl2, 1 mM DTT, 0.1% Tween-20, 0.2 mg/ml BSA; 25 C; 10 min per concentration, then washed. Particulars: tags: His6-TwinStrep-SUMO cleaved; N-terminal SNAP kept (SNAP-Surface 488); label: 3' end held by stalled T7 RNA polymerase.
A word on the Kd: it is the free concentration of one partner at which half of the binding sites on the other are occupied at equilibrium, for simple one-to-one binding. High values mean a looser complex, low ones a tighter complex. For the molecule B1, binding was characterised by a dissociation constant (Kd) of 13.6 ± 0.9 nM.

Molecule B2 had a dissociation constant Kd of 4.9 ± 0.7 nM.

For B3, the dissociation constant Kd was 12.9 ± 1.1 nM.

Regarding B4, binding was characterised by a dissociation constant (Kd) of 12.4 ± 1.8 nM.

In turn, B5 returned a Kd of 5 ± 0.4 nM.

Consider B6, for which the equilibrium dissociation constant (Kd) was found to be 11 ± 2.4 nM.

Regarding B7, the equilibrium dissociation constant (Kd) is 4.6 ± 1.1 nM.

The molecule B8 had a Kd of 10 ± 1.6 nM.

B9 yielded a dissociation constant (Kd) of 3.4 ± 0.4 nM.

The molecule B10 registered a dissociation constant Kd of 6.77 ± 0.3 nM.

As to B11, the Kd was 12.7 ± 1.1 nM.

In turn, B12 showed a Kd of 10.4 ± 1.8 nM.

In turn, B13 came in with a Kd of 27.2 ± 3.2 nM.

As for B14, the Kd amounted to 2.9 ± 0.4 nM.

Regarding B15, the dissociation constant (Kd) came out at 3.8 ± 0.5 nM.

Consider B16, for which the Kd was 4.8 ± 1.3 nM.

Molecule B17 had a Kd of 4.9 ± 1.1 nM.

For the molecule B18, the Kd was approximately 130 nM.

On to B19, for which the equilibrium dissociation constant (Kd) is 2.28 ± 0.22 nM.

Consider B20, for which the Kd worked out at 2.4 ± 0.4 nM.

In turn, B21 came in with a dissociation constant Kd of 3.1 ± 0.4 nM.

On to B22, for which binding was characterised by a dissociation constant (Kd) of 17.2 ± 2.6 nM.

B23 showed a Kd of 5.4 ± 0.5 nM.

The molecule B24 had a Kd of 4.4 ± 0.6 nM.

For the molecule B25, the dissociation constant Kd turned out to be 24 ± 5 nM.

B26 yielded a Kd of 2.9 ± 0.4 nM.

As to B27, binding was characterised by a dissociation constant (Kd) of 10.5 ± 1.6 nM.

B28 returned a Kd of 7.1 ± 1.6 nM.

The molecule B29 showed a Kd of 7.6 ± 1 nM.

Regarding B30, binding was characterised by a dissociation constant (Kd) of 9.7 ± 1.4 nM.

As to B31, binding was characterised by a dissociation constant (Kd) of 4.9 ± 1.3 nM.

B32 came in with a Kd of 7.2 ± 0.7 nM.

As for B33, binding was characterised by a dissociation constant (Kd) of 8.6 ± 1 nM.

For the molecule B34, the Kd is 22 ± 4 nM.

B35 had a dissociation constant Kd of 12.3 ± 0.7 nM.

Regarding B36, the dissociation constant (Kd) worked out at 89 ± 16 nM.
